Drawing on US20090105152A1, this text covers intracellular Ca ion level-increasing activity [specific activity to Metastin (1-54)] (relative to Metastin (1-54)) for nine molecules.

Square brackets hold non-standard residues; d marks the D form. Phe(βS-OH) = N[C@H](C(=O)O)[C@@H](O)c1ccccc1; Pro(trans-4-F) = O=C(O)[C@@H]1C[C@@H](F)CN1; Arg(Me) = CNC(=N)NCCC[C@H](N)C(=O)O; Dap(CONH2) = NC(=O)NC[C@H](N)C(=O)O; cisHyp = O=C(O)[C@@H]1C[C@H](O)CN1; Hyp = O=C(O)[C@@H]1C[C@@H](O)CN1; d4Pal = N[C@H](Cc1ccncc1)C(=O)O; Nva = CCC[C@H](N)C(=O)O; azaGly = NNC(=O)O

The labels stand for the following.
B1: des(1)-Ac-[D-Tyr2,Hyp3,Nva4,Thr5,AzaGly7,Arg(Me)9,Trp10]MS10 (peptide)
peptide: Ac-[dY][Hyp][Nva]TF[azaGly]L[Arg(Me)]W-NH2
SMILES: CCC[C@H](NC(=O)[C@@H]1C[C@@H](O)CN1C(=O)[C@@H](Cc1ccc(O)cc1)NC(C)=O)C(=O)N[C@H](C(=O)N[C@@H](Cc1ccccc1)C(=O)NNC(=O)N[C@@H](CC(C)C)C(=O)N[C@@H](CCCNC(=N)NC)C(=O)N[C@@H](Cc1c[nH]c2ccccc12)C(N)=O)[C@@H](C)O
B2: des(1)-Ac-[D-Tyr2,Pro(4F)3,Thr5,AzaGly7,Arg(Me)9,Trp10]MS10 (peptide)
peptide: Ac-[dY][Pro(trans-4-F)]NTF[azaGly]L[Arg(Me)]W-NH2
SMILES: CNC(=N)NCCC[C@H](NC(=O)[C@H](CC(C)C)NC(=O)NNC(=O)[C@H](Cc1ccccc1)NC(=O)[C@@H](NC(=O)[C@H](CC(N)=O)NC(=O)[C@@H]1C[C@@H](F)CN1C(=O)[C@@H](Cc1ccc(O)cc1)NC(C)=O)[C@@H](C)O)C(=O)N[C@@H](Cc1c[nH]c2ccccc12)C(N)=O
B3: des(1)-Ac-[D-Tyr2,D-Trp3,D-Pro5,AzaGly7,Arg(Me)9,Trp10]MS10 (peptide)
peptide: Ac-[dY][dW]N[dP]F[azaGly]L[Arg(Me)]W-NH2
SMILES: CNC(=N)NCCC[C@H](NC(=O)[C@H](CC(C)C)NC(=O)NNC(=O)[C@H](Cc1ccccc1)NC(=O)[C@H]1CCCN1C(=O)[C@H](CC(N)=O)NC(=O)[C@@H](Cc1c[nH]c2ccccc12)NC(=O)[C@@H](Cc1ccc(O)cc1)NC(C)=O)C(=O)N[C@@H](Cc1c[nH]c2ccccc12)C(N)=O
B4: des(1)-Ac-[D-Tyr2,D-Pya(4)3,Alb4,Thr5,AzaGly7,Arg(Me)9,Trp10]MS10 (peptide)
peptide: Ac-[dY][d4Pal][Dap(CONH2)]TF[azaGly]L[Arg(Me)]W-NH2
SMILES: CNC(=N)NCCC[C@H](NC(=O)[C@H](CC(C)C)NC(=O)NNC(=O)[C@H](Cc1ccccc1)NC(=O)[C@@H](NC(=O)[C@H](CNC(N)=O)NC(=O)[C@@H](Cc1ccncc1)NC(=O)[C@@H](Cc1ccc(O)cc1)NC(C)=O)[C@@H](C)O)C(=O)N[C@@H](Cc1c[nH]c2ccccc12)C(N)=O
B5: des(1)-Ac-[D-Tyr2,D-Trp3,Alb4,Thr5,AzaGly7,Arg(Me)9,Trp10]MS10 (peptide)
peptide: Ac-[dY][dW][Dap(CONH2)]TF[azaGly]L[Arg(Me)]W-NH2
SMILES: CNC(=N)NCCC[C@H](NC(=O)[C@H](CC(C)C)NC(=O)NNC(=O)[C@H](Cc1ccccc1)NC(=O)[C@@H](NC(=O)[C@H](CNC(N)=O)NC(=O)[C@@H](Cc1c[nH]c2ccccc12)NC(=O)[C@@H](Cc1ccc(O)cc1)NC(C)=O)[C@@H](C)O)C(=O)N[C@@H](Cc1c[nH]c2ccccc12)C(N)=O
B6: des(1)-Ac-[D-Tyr2,Hyp3,Thr5,erythro-Ser(3Phenyl)6,AzaGly7,Arg(Me)9,Trp10]MS10 (peptide)
peptide: Ac-[dY][Hyp]NT[Phe(βS-OH)][azaGly]L[Arg(Me)]W-NH2
SMILES: CNC(=N)NCCC[C@H](NC(=O)[C@H](CC(C)C)NC(=O)NNC(=O)[C@@H](NC(=O)[C@@H](NC(=O)[C@H](CC(N)=O)NC(=O)[C@@H]1C[C@@H](O)CN1C(=O)[C@@H](Cc1ccc(O)cc1)NC(C)=O)[C@@H](C)O)[C@@H](O)c1ccccc1)C(=O)N[C@@H](Cc1c[nH]c2ccccc12)C(N)=O

For this experiment, the target named is human OT7T175 (metastin receptor) (human) (UniProt Q969F8). The experiment is described as follows: cell-based or functional assay.
Sequence of human OT7T175 (metastin receptor) (human) (Q969F8 whole entry L364H): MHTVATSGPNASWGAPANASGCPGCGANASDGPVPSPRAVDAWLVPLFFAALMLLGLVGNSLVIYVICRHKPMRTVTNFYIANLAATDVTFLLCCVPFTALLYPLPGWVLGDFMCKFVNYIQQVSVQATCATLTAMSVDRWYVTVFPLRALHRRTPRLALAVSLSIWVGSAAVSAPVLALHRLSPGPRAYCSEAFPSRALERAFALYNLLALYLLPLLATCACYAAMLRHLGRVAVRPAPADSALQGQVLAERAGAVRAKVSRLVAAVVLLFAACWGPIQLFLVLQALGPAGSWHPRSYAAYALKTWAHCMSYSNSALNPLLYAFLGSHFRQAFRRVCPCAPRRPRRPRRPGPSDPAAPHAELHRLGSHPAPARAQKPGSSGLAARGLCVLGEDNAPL
The molecule B1 yielded an intracellular Ca ion level-increasing activity [specific activity to Metastin (1-54)] (relative to Metastin (1-54)) of 1.2.
In the case of B2, the intracellular Ca ion level-increasing activity [specific activity to Metastin (1-54)] (relative to Metastin (1-54)) is 0.7.
Turning to Ac-Y[Hyp]NTF[azaGly]L[Arg(Me)]W-NH2 [des(1)-Ac-[Tyr2,Hyp3,Thr5,AzaGly7,Arg(Me)9,Trp10]MS10], the intracellular Ca ion level-increasing activity [specific activity to Metastin (1-54)] (relative to Metastin (1-54)) was 1.1.
B3: the intracellular Ca ion level-increasing activity [specific activity to Metastin (1-54)] (relative to Metastin (1-54)) is 3.8.
With Ac-[dY][cisHyp]NTF[azaGly]L[Arg(Me)]W-NH2 [des(1)-Ac-[D-Tyr2,cisHyp3,Thr5,AzaGly7,Arg(Me)9,Trp10]MS10], the intracellular Ca ion level-increasing activity [specific activity to Metastin (1-54)] (relative to Metastin (1-54)) is 0.6.
As to {3‑(p-hydroxyphenyl)propionyl}-[Hyp]NTF[azaGly]L[Arg(Me)]W-NH2 [des(1-2)-3-(p-Hydroxyphenyl)propionyl-[Hyp3,Thr5,AzaGly7,Arg(Me)9,Trp10]MS10], the intracellular Ca ion level-increasing activity [specific activity to Metastin (1-54)] (relative to Metastin (1-54)) was determined as 1.1.
B4 displayed an intracellular Ca ion level-increasing activity [specific activity to Metastin (1-54)] (relative to Metastin (1-54)) of 2.6.
In the case of B5, the intracellular Ca ion level-increasing activity [specific activity to Metastin (1-54)] (relative to Metastin (1-54)) was 1.
The figure for B6 is 0.8.
